For series [1], the target named is T1, rLac2 (full-length recombinant laccase-2) (Manduca sexta, UniProt Q8I8Y0).
T1 sequence (Q8I8Y0 24-760): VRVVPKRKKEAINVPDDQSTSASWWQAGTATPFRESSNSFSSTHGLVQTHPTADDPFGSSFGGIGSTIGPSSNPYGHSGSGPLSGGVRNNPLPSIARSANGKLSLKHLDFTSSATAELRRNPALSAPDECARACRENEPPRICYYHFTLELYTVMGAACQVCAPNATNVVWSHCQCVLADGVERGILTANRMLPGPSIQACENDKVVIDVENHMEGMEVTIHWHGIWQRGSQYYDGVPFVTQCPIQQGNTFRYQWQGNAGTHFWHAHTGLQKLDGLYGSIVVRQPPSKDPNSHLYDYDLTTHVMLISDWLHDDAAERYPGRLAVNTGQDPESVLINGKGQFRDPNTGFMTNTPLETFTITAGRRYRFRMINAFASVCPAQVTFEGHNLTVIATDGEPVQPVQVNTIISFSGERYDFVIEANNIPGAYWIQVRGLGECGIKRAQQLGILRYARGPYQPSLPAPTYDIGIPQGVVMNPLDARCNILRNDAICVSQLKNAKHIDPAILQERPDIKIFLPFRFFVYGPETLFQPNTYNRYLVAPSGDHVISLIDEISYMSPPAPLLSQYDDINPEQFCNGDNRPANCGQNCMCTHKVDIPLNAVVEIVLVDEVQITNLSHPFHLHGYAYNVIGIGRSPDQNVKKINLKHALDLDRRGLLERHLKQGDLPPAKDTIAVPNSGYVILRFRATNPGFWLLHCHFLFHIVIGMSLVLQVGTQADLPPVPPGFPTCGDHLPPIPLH
As to the kind of experiment: spectrophotometric, quinone formation at […] nm. It counts as biochemical. To be noted: substrate inhibition (uncompetitive) constant; 100 mM sodium citrate pH 5; air.

Series [2] deals with T2, cLac2 (endogenous cuticular laccase-2) (Manduca sexta, UniProt Q8I8Y0).
T2 sequence (Q8I8Y0 142-760): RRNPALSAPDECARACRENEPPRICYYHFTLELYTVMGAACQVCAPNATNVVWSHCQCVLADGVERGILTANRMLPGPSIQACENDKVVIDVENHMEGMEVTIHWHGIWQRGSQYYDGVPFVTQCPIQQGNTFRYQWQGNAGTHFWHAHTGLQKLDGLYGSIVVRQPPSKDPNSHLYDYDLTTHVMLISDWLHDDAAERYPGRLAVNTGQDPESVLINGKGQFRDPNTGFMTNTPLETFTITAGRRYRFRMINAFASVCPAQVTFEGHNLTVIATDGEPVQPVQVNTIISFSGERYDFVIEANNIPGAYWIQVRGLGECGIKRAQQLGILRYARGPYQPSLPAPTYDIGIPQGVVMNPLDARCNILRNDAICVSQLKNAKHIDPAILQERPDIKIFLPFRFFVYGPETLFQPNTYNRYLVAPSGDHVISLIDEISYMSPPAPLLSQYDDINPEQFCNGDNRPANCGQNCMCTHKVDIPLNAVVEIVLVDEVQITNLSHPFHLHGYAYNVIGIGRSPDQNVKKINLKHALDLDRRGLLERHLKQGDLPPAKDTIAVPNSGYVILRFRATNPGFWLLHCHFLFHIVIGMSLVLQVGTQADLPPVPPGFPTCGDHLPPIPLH
As to the kind of experiment: spectrophotometric, quinone formation at […] nm. Type of series: biochemical. To be noted: substrate inhibition (uncompetitive) constant; 100 mM sodium citrate pH 5; air.

Substrate in series [3]: CC(=O)NCCc1ccc(O)c(O)c1
Description: purified protein. Type of series: biochemical, Manduca sexta. Particulars: 100 mM sodium citrate pH 5, air.

Substrate in series [4]: CCn1c(=NN=c2sc3cc(S(=O)(=O)O)ccc3n2CC)sc2cc(S(=O)(=O)O)ccc21
As to the kind of experiment: purified protein. It counts as biochemical, Manduca sexta. Particulars: 100 mM sodium citrate pH 5, air, data not shown.

Take `NCCC(=O)NCCc1ccc(O)c(O)c1` [NBAD]: the results for the “Ksi” value in series [1] and in series [2] were 6.7 ± 1.4 mM and 9.7 ± 1.3 mM, respectively.

B1: cLac2 (endogenous cuticular laccase-2) (Manduca sexta) (protein)
chain: T2 sequence (Q8I8Y0 142-760)
Usually Km stands for the substrate concentration at which the rate is half of its maximum. For orientation: Vmax means the top rate of the reaction or transport when substrate is in excess. As usually defined, the kcat is the number of substrate molecules converted per active site and unit of time at saturation. For orientation: kcat/Km means the second-order rate constant that governs catalysis at low substrate concentration. As to B1, in series [3], the Km was 630 ± 50 µM, the Vmax turned out to be 10.5 ± 0.25 µM/min, the kcat amounted to 4.83 ± 0.117 s⁻¹ and the kcat/Km was found to be 7670 M⁻¹ s⁻¹. In series [4], the Km came out at 1500 µM and the kcat came to 7.67 s⁻¹.

B2: rLac2 (full-length recombinant laccase-2) (Manduca sexta) (protein)
chain: T1 sequence (Q8I8Y0 24-760)
As for B2, in series [3], the Km amounted to 460 ± 50 µM, the Vmax turned out to be 3.1 ± 0.1 µM/min, the kcat turned out to be 1.67 ± 0.05 s⁻¹ and the kcat/Km was 3670 M⁻¹ s⁻¹.

Values taken from article PMC2733336 (Insect biochemistry and molecular biology, 2009).
